The source of these data is publication PMC8967028.

Common to all, as to experiment: SPR; Biacore T200; […], single cycle kinetics, […]; 25°C; PBS, 0.05% Tween 20, 3.4 mM EDTA; 1:1 binding model; triplicate; […]
In general terms: Surface plasmon resonance follows binding to a sensor surface in real time, without labels.

The target in assay [1] is SARS-CoV-2 B.1.617.2 (Delta) spike (S) receptor binding domain (SARS-CoV-2).
Assay [2] addresses SARS-CoV-2 B.1.1.529 (Omicron) spike (S) receptor binding domain (SARS-CoV-2).
The target in assay [3] is SARS-CoV-2 B.1.351 (Beta) spike (S) receptor binding domain (SARS-CoV-2).

What is called koff is a measure of how fast the partners let go of each other. Take VHH-72-Fc L97W,T99V (Fc fusion): the figures for the koff in assay [1], in assay [2] and in assay [3] were 0.00016 s⁻¹, 0.061 s⁻¹ and 0.00056 s⁻¹, respectively.
Take parental VHH-72-Fc (Fc fusion): the koff amounted to 0.0051 s⁻¹ in assay [1] and 0.029 s⁻¹ in assay [3].
For VHH-72-Fc T99V (Fc fusion) the same measures were 0.00062 s⁻¹ and 0.0077 s⁻¹.
In the case of VHH-72-Fc S56M,L97W,T99V (Fc fusion), the koff turned out to be 0.00023 s⁻¹ in assay [1], 0.007 s⁻¹ in assay [2] and 0.00039 s⁻¹ in assay [3].
Take VHH-72-Fc S56M (Fc fusion): the koff in assay [1] amounted to 0.001 s⁻¹; in assay [3] it was 0.013 s⁻¹.
With VHH-72-Fc L97W (Fc fusion), the results for the koff in assay [1] and in assay [3] were 0.00081 s⁻¹ and 0.0079 s⁻¹, respectively.
Regarding VHH-72-Fc S56M,L97W (Fc fusion), the values for the koff in assay [1], in assay [2] and in assay [3] were 0.00039 s⁻¹, 0.7 s⁻¹ and 0.0025 s⁻¹, respectively.
In the same order, the values of VHH-72-Fc S56M,T99V (Fc fusion) are 0.00035 s⁻¹, 0.0252 s⁻¹ and 0.00068 s⁻¹.
